The values that follow come from article PMC5774762.

One experiment concerns the target biotinylated SUMO1 (UniProt P63165). The experiment in a line: BLI; biotinylated SUMO1 on streptavidin sensors (Octet QK); UTAG as analyte 4-250 nM; 25°C; HBS-T (10 mM HEPES pH 7.4, 150 mM NaCl, 0.05% Tween 20); association 300 s, dissociation 300 s; global single-state fit.
In experiment [1] the target is SUMO1 conjugated to agarose beads (UniProt P63165). The experiment can be described thus: pull-down; SUMO1 beads, 45 min in the presence of hydrogen peroxide (concentration not told); percent of total protein bound.
Experiment [2] shares this target. The experiment can be described thus: pull-down; SUMO1 beads with 2.0 M urea, 5 mM TCEP; quantitated against the reaction without urea.
The target is the same in experiment [3]. The experiment in a line: pull-down; SUMO1 beads, binding of KmUTAG over time (min); percent of total protein bound.
For experiment [4] the target is unchanged. The experiment in a line: pull-down; SUMO1 beads, with TCEP, at 42°C; bound UTAG quantitated from the stained gel against room temperature.
The target of a further experiment is SUMO1 (Homo sapiens) (UniProt P63165). As to conditions: cited from earlier work.
The target of experiment [5] is SUMO1 conjugated to agarose beads (UniProt P63165). The experiment can be described thus: pull-down; SUMO1-conjugated agarose beads in buffer with hydrogen peroxide (0.6% in the text, 1% in the legend) instead of TCEP; quantitated from the stained gel.
The target is the same in experiment [6]. The experiment can be described thus: pull-down; SUMO1 beads with various concentrations of hydrogen peroxide (0.006% named in the text); quantitated from the stained gel.

As usually defined, the Kd is the free concentration of one partner at which half of the binding sites on the other are occupied at equilibrium, for simple one-to-one binding. As a reminder, the koff is a measure of how fast the partners let go of each other. Lower therefore signals a long-lived complex. As usually defined, the kon is a measure of how fast the partners come together. “KmUTAG, catalytically inactive (C517S) UD domain of Kluyveromyces marxianus Ulp1, MBP/His6 fusion (from UniProt A0ABX6EQA7 1-555) (domain or fragment)”: in the experiment with biotinylated SUMO1, the KD after elimination of the top two analyte traces is 8.7 nM, the Kd turned out to be 8.7 nM, the koff amounted to 0.00084 s⁻¹ and the kon was found to be 96000 M⁻¹ s⁻¹. In addition, the percent of the protein bound after 45 minutes in the presence of peroxide in experiment [1] came out at 60%. The same substance showed a percent reduction of binding in 2M urea in experiment [2] of 23%. Further, in experiment [3], the percent of the protein bound after 45 minutes is 70% and the percent of the protein bound within 15 minutes is 50%. In experiment [4], the percent reduction of binding at 42°C against room temperature was 25%.

Consider ScUTAG (from UniProt Q02724), for which the Kd with SUMO1 (Homo sapiens) was 12.8 nM.

For “ScUTAG, catalytically inactive (C580S) UD domain of Saccharomyces cerevisiae Ulp1, MBP/His6 fusion (from UniProt Q02724 1-621) (domain or fragment)”, in the experiment with biotinylated SUMO1, the Kd came to 2 nM, the koff was 4.2e-05 s⁻¹ and the kon came to 21000 M⁻¹ s⁻¹. Also, in experiment [2], the percent reduction of binding in 2M urea turned out to be 82%. In addition, in experiment [5], the percent of binding left in the presence of 0.6% H2O2 was found to be 17%. The same substance had a percent reduction of binding with 0.006% peroxide in experiment [6] of 50%. Besides, in experiment [4], the percent reduction of binding at 42°C against room temperature was 87%.
